Measured values from publication PMC5012548.

B1: apMNK3R (ssDNA)
DNA: GTTGCTCGTATTTAGGGCGGGGGTGGGCGGATTTCGCAGGTGGCGTGTACACCAGTCTTCATCCGC
B2: apMNK3F (ssDNA)
DNA: GCGGATGAAGACTGGTGTACACGCCACCTGCGAAATCCGCCCACCCCCGCCCTAAATACGAGCAAC
B3: apMNK2F (ssDNA)
DNA: GCGGATGAAGACTGGTGTGGGGTGGGCGGGCGGGGGTGGGGGTGGTATGGCGCGTTGGCCCTAAATACGAGCAAC
B4: apMNK4F (ssDNA)
DNA: GCGGATGAAGACTGGTGTACAACGGGCAGCCAGGTCTTCGTCGTGTGTGCCCTAAATACGAGCAAC
B5: apMNK4R (ssDNA)
DNA: GTTGCTCGTATTTAGGGCACACACGACGAAGACCTGGCTGCCCGTTGTACACCAGTCTTCATCCGC
B6: apMNK1F (ssDNA)
DNA: GCGGATGAAGACTGGTGTACACGCCGAACCCATTGTTCCAGGCGACATGCCCTAAATACGAGCAAC

Key:
GST-MNK1b = GST-MNK1b (human, UniProt Q9BUB5-3 1-347); assay: ELONA
His-MNK1b (rMNK1b) [1] = target: T1, His-MNK1b (rMNK1b) (UniProt Q9BUB5-3 1-347); assay: ELONA
His-MNK1b (rMNK1b) [2] = target: T1, His-MNK1b (rMNK1b); assay: Ni-NTA pull-down with qPCR

Row | Binder | Kd (GST-MNK1b) | binding result (His-MNK1b (rMNK1b) [1]) | binding result (His-MNK1b (rMNK1b) [2])
1 | B1 | 6.36 ± 1.72 nM | – | –
2 | B2 | – | binds | –
3 | B3 | 1.79 ± 0.48 nM | – | –
4 | B4 | – | binds | –
5 | B5 | – | – | binds
6 | B6 | – | – | binds
